Amyloid nucleation score data for 104 substances are collected here from the supplement of paper PMC12042874.

± gives the uncertainty stated by the source.

A short description of the series: amyloid nucleation score (Sup35N fusion, yeast selection) (log enrichment); library NNK2; higher = more nucleation; inactive = no reads after selection. Put shortly: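 The nucleation score, computed with DiMSum, is the log enrichment of output over input reads, centred on the mode score of non-aggregating sequences. Sequences with under 100 input reads were dropped. Reads were generated by Illumina sequencing of plasmid inserts from psi-negative yeast with Sup35N fused to peptides of 20 random codons, induced with 100 μM copper sulfate for 24 hours and grown 7 days at 30°C on medium lacking adenine and uracil.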
Turning to HGSFAIMP, the amyloid nucleation score is -0.529 ± 0.45.
In the case of HGVMKISTCYFGGKESYYVE it was -0.206 ± 0.76; in that of HGYSVFYAVYAEGEMNIINA, -0.172 ± 1.1; in that of HGYSWVVI, 0.019 ± 0.19.
In the case of HHATKNFCTLFCLKSWGRFS it was 7.767 ± 0.059; in that of HHHLRQVLGESQYLSCLWIK, 0.388 ± 0.47.
Substance HHMKGAGPNNLFPGDPSGAR had an amyloid nucleation score of 3.46 ± 0.065.
Then HHNPGVWMKGSPCMWKIVQI, with 4.76 ± 0.076; and HHNTCKGM, with 4.35 ± 0.062.
Then HHRGMIMLHNINYLRSFNAT, with -0.465 ± 0.44; and HHVEGMGYFLS, with 0.175 ± 0.25.
For HHVGGMTV, the amyloid nucleation score was 0.691 ± 0.8.
Then HIARCNNWNACLMSRRHNCW, with 3.6 ± 0.061; and HIHSKQIRVFNFSNFLEQIY, with 6.113 ± 0.033; and HIILIEGSMVCQTLVRGDLV, with 5.514 ± 0.042.
Regarding HILRQGQYGYVCCASASYEC, the amyloid nucleation score turned out to be 7.312 ± 0.038.
In the case of HIRDTESTTLVRVRGCSSPK it was 0.07 ± 0.61; in that of HISLVSCHEM, -0.213 ± 1.1.
HITRGVVPTAV returned an amyloid nucleation score of 0.655 ± 0.74.
The substance HKGAARQPRPYMEAVIGPHP showed an amyloid nucleation score of 0.792 ± 0.27.
The substance HKGVM came in with an amyloid nucleation score of -1.06 ± 0.5.
The substance HKLLCGYTQSQHQRIGFQEF yielded an amyloid nucleation score of -0.733 ± 1.1.
The substance HKWKII registered an amyloid nucleation score of -1.55 ± 0.75.
Regarding HLCPTHLNNETLRTNFWAN, the amyloid nucleation score worked out at 1.96 ± 0.19.
Turning to HLDLDPPM, the amyloid nucleation score is 0.284 ± 1.1.
On to HLFYCRSIGDILRSFGETPT, for which the amyloid nucleation score entry is “inactive”.
In turn, HLNWHLFILGLFGSATGEDI registered an amyloid nucleation score of -1.48 ± 1.1.
Then HLPGWSGWRSDFDIHTSGVG, with 1.92 ± 0.25.
Substance HMYLDMPAQLTS displayed an amyloid nucleation score of 2.69 ± 0.062.
In the case of HNCFFITRCSKVLRAYFSTL it was -1.4 ± 1.1.
HNEPG showed an amyloid nucleation score of -1.2 ± 0.75.
In turn, HNITLLQLNCKWLKMVYEWT yielded an amyloid nucleation score of 9.366 ± 0.061.
Consider HNRSFILNTAKFLVVNNPLA, for which the amyloid nucleation score entry was “inactive”.
HPLVLWSIELCMMFFNSLTD returned an amyloid nucleation score of -0.565 ± 0.48.
As for HQIHLSY, the amyloid nucleation score was -0.593 ± 1.1.
Then HQRSDYV, with 0.383 ± 0.74; and HQYGLNIKCFKCAILSKSGT, with -0.562 ± 1; and HRCNMGLSWTGVYQRVGKSS, with 0.757 ± 0.57.
On to HRFVFGVYWVVVR, for which the amyloid nucleation score entry was “inactive”.
HRLFSY yielded an amyloid nucleation score of -0.776 ± 0.63.
HRTKRGRHFIFRTCKQYYPG returned an amyloid nucleation score of 2.81 ± 0.071.
HRVWRVAFVQVRSFIY registered an amyloid nucleation score of -0.038 ± 1.
The substance HRYSRCIHLVKWVWCVQMIA returned an amyloid nucleation score of 1.29 ± 0.32.
In the case of HSCVYYTVYLRLFSMKGSEN it was 5.361 ± 0.038.
In the case of HSFNYKFLLTI it was -0.001 ± 0.54; in that of HSGMRMRPASSCSPKKP, 0.189 ± 0.49.
In turn, HSLFRLLRTSVHAEKSWSNS returned an amyloid nucleation score of 2.88 ± 0.063.
Consider HSLLSLLVVFYLQDRSRVIC, for which the amyloid nucleation score amounted to 0.848 ± 0.13.
Regarding HSLRGTWMGMVSASCTPVDM, the amyloid nucleation score came to 4.27 ± 0.057.
Regarding HSMSKDLGWFHPNVNRFGFF, the amyloid nucleation score entry was “inactive”.
Take HSPYRFKSKCQRINMFCVIT: the amyloid nucleation score was 5.713 ± 0.047.
For the substance HSSAFMRMLMFRELRRNSDP, the amyloid nucleation score result is “inactive”.
The substance HSSMLLSVFDLNARK showed an amyloid nucleation score of -0.174 ± 0.49.
Then HSWILNHNIDVTIGNVTWSG, with 6.863 ± 0.03; and HTEFGRVGNICLGMRCEVDW, with 0.792 ± 0.4.
With HTHTWT, the amyloid nucleation score is 1.31 ± 0.38.
HTKMYRAAARMVGAGNDFDM returned an amyloid nucleation score of 0.146 ± 0.46.
Regarding HTTLHSSAIQVWSWRLLYFV, the amyloid nucleation score stood at 5.061 ± 0.049.
Consider HTVLPWYTIRYKWEGVGLTD, for which the amyloid nucleation score is 0.403 ± 0.45.
As for HTWGAHRFCRWRNTSASDSW, the amyloid nucleation score was found to be 8.703 ± 0.03.
In the case of HVADTGLIMQYVVSGLRVAG, the amyloid nucleation score was 0.602 ± 0.22.
HVAFKLKVIVRIVSLTSGER returned an amyloid nucleation score of 2.94 ± 0.075.
For HVFMSTIKICRDQLNHQLRE, the amyloid nucleation score was 7.729 ± 0.037.
In the case of HVGLKSLHTMASWFMFDHNI, the amyloid nucleation score entry is “inactive”.
HVILM displayed an amyloid nucleation score of 1.65 ± 0.33.
Regarding HVLFIAKLDFALTEFLRMCE, the amyloid nucleation score came out at 0.735 ± 0.19.
Substance HVNYWGRLCMKKRCNVDVNH displayed an amyloid nucleation score of 5.634 ± 0.043.
In the case of HVRHGESLFFANQA it was -0.038 ± 1.1; in that of HVSFLIDRNTMRGLMASSNN, “inactive”; in that of HVSNSFKSFCN, 1.52 ± 0.2.
Then HVYLSLEDQGILNSTECMQH, with -0.393 ± 1.1; and HVYPVWFCWLYSFRLHYSQV, with -0.149 ± 0.56; and HWSFS, with 2.85 ± 0.17.
The substance HWSYKDSLWVLDAAESVNMS gave an amyloid nucleation score of 0.622 ± 0.66.
In turn, HYCSVRMWLTTKEADPRTSL registered an amyloid nucleation score of 0.739 ± 0.31.
Then HYLVS, with 0.326 ± 0.49; and HYMDSNIVLNSAKSRRKDAW, with 0.132 ± 0.24; and HYRISLSIPHIDHAKAQALL, with -0.603 ± 1.
For IADQTSSSDYLVRTVFNFSV, the amyloid nucleation score amounted to 1.72 ± 0.099.
In turn, IAHRVITMP gave an amyloid nucleation score of -0.277 ± 1.1.
Then IAIKM, with 3.25 ± 0.08; and IAMFT, with 6.299 ± 0.044.
In the case of IARSKVGRRYHVGRFRCVCV it was -0.095 ± 0.44.
In the case of IARVDLKFMESIRSHMV it was 1.71 ± 0.56.
With IATAKTRQGFPLMSTLPAIV, the amyloid nucleation score was 0.37 ± 0.5.
In the case of IATTATSVGSVR, the amyloid nucleation score was 0.924 ± 0.25.
As for IAVNMCSFFVSDLHPMRWGY, the amyloid nucleation score was 7.495 ± 0.035.
In the case of ICACKSY it was 5.28 ± 0.076; in that of ICFNTSLVPECKHSRSEFDS, 0.643 ± 0.64; in that of ICGVSFTGAIYARGGRLRIR, 0.145 ± 0.63.
In turn, ICIHYANNLLVNMRTKMCHK registered an amyloid nucleation score of 9.369 ± 0.054.
For the substance ICIVVVCDFCIYRMCATGTV, the amyloid nucleation score stood at 0.735 ± 0.28.
For ICKGRCVASGWV, the amyloid nucleation score is 1.61 ± 0.14.
As to ICKRIFGRYRYLSSEVDCVS, the amyloid nucleation score was -1.54 ± 0.55.
As to ICQCRSLRGRAYQVLGVNKS, the amyloid nucleation score stood at 0.731 ± 0.57.
As to ICQRVDCSLCGPGWCTFVEH, the amyloid nucleation score is 9.398 ± 0.051.
In the case of ICVECSYVYMTGGKV, the amyloid nucleation score was 3.79 ± 0.057.
In turn, IDCWCSVSWATAL returned an amyloid nucleation score of -0.4 ± 0.64.
As to IDFKHVL, the amyloid nucleation score is -0.964 ± 0.39.
Then IDFVVFFT, with 1.09 ± 0.27; and IDILTVICVPEIYNWFLMQY, with -0.842 ± 0.35; and IDLAHGWSSSH, with 0.66 ± 0.57.
Consider IDLTHECVRVWVDSKLLSPF, for which the amyloid nucleation score is -0.742 ± 1.1.
Then IDMYRRQYDQSQIKCNFSS, with -0.087 ± 0.45.
